Source: paper PMC3839904, “The α-Proteobacteria Wolbachia pipientis Protein Disulfide Machinery Has a Regulatory Mechanism Absent in γ-Proteobacteria” (PLoS ONE, 2013)

Experiments:
[1] = target: α-DsbB [SSCC] (the two cysteines of the first periplasmic loop replaced with serines) (Wolbachia pipientis wMel)
[2] = target: Wolbachia pipientis wMel α-DsbB (integral membrane protein) (Wolbachia pipientis wMel)
[3] = target: Wolbachia pipientis wMel α-DsbB (integral membrane protein) (Wolbachia pipientis wMel); remark: listed apart in the source
[4] = target: Wolbachia pipientis wMel α-DsbB (integral membrane protein) (Wolbachia pipientis wMel); remark: listed apart in the source
[5] = target: Wolbachia pipientis wMel α-DsbB (integral membrane protein) (Wolbachia pipientis wMel); remark: listed apart in the source
α-DsbB = target: T1, α-DsbB (Wolbachia pipientis, UniProt Q73G63); experiment: UQ1 reduction, absorbance at […] nm; AMS gel shift; assay type: biochemical; settings: reduced α-DsbA1 […] as electron donor, pH […] beta-DDM, […]°C
T1 construct: gene WD_1099; full-length integral membrane protein, pET21a (NdeI/XhoI) in E. coli BL21(DE3)pLysS, beta-DDM solubilised, TALON and size exclusion purified
T1 sequence (Q73G63 1-173): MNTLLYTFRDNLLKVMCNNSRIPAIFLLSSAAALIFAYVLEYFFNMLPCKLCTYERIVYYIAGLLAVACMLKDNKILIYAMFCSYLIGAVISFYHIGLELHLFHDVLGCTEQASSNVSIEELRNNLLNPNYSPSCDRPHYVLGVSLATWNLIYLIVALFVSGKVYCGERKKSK

Q: With “Wolbachia pipientis wMel α-DsbA1 (enzyme)” as the compound, how does the reverse reaction: gel-shift of the oxidation of reduced α-DsbB [SSCC] by oxidized α-DsbA1, within 15 min (% of α-DsbB [SSCC] oxidized) [1] read?
A: 50

Q: And the initial rate of UQ1 reduction (absorbance at 275 nm) with α-DsbB (50 nM), UQ1 (30 µM) and reduced α-DsbA1 (30 µM), 30°C [2]?
A: 0.236 min⁻¹

Q: What about the initial rate of oxidation of the peptide substrate (time-resolved fluorescence) by α-DsbA1 with α-DsbB membranes (endogenous UQ), pH 5.5 [3] of the same compound?
A: 0.00477 min^-1

Q: What does the source list for “α-DsbA1CA (α-DsbA1 variant with the cysteines of the non-catalytic disulfide replaced with alanine) (enzyme)”?
A: initial rate of UQ1 reduction (absorbance at 275 nm) with α-DsbB, UQ1 and reduced α-DsbA1CA, 30°C [2]: 0.463 min⁻¹; gel-shift (AMS labelling) of the redox state of reduced α-DsbA1CA with α-DsbB and UQ1; oxidised variant against oxidised wt at 30 sec, 2 min, 5 min (3, 2 and 1.3 fold) [4]: 3 fold; initial rate of oxidation of the peptide substrate (time-resolved fluorescence) by α-DsbA1CA with wt α-DsbB membranes [5]: 0.00621 min⁻¹

Q: With `COC1=C(OC)C(=O)C(CC=C(C)C)=C(C)C1=O` [UQ1, ubiquinone-1] as the compound, how does the “UQ1 reduction, absorbance at 275 nm; AMS gel shift” value (α-DsbB) read?
A: UQ1 reduction was coupled with α-DsbB-mediated oxidation of α-DsbA1
